From patent US20240352438A1, “MEANS AND METHODS FOR DETOXIFYING OCHRATOXIN A” (DSM Austria GmbH, priority 2021, published 2024)

B1: 55 (protein)
chain: MTTRTRILTAFLSLLAANACAADAAPAAPHTVVLRAARMFDGASGKLVDHPQLTIVGNKIVRIAQGDKAEVPAGAEVVDLGDATLLPGFIDAHVHLSGQSSDNWYGDFFDNMMRFPAEQALYGAYYARITLEAGFTSVRDVGSTDWVALGLRNAIDAGKVPGPRMLVSNYAVGSTGGHADQDPIPPHKLPLAGPLQGVCNGPEECRAAVRYQIKYGANVIKFMPSGGVVSLSDPVDAPELSQDEMNAVIGESHAWGRKVAAHAHGDKAAKMAVAAGVDSIEHGSFIEDDTLRAMKAKNVYLVPTISAIAHVEEKIGTFPPVIAEKGRAAAAHLRQTFRHAVQIGVPIALGTDAGVGAHGSNAREFRYMVENGLTPAQALLAGTANAARLLGTFDRVGTLEAGKLADVVAVPGNPIADITVTERPLFVMKDGVVVRRDAVR
modifications: exemplary polypeptide
B2: 57 (protein)
chain: MTTRTRILTAFLSLLAANACAADAAPAAPHTVVLRAARMFDGASGKLVDHPQLTIVGNKIVRIAQGDKAEVPAGAEVVDLGDATLLPGFIDAHVHLSGQSSDNWYGDFFDNMMRFPAEQALYGAYYARITLEAGFTSVRDVGSTDWVALGLRNAIDAGKVPGPRMLVSNYAVGSTGGHADQDPIPPHKLPLAGPLQGVCNGPEECRAAVRYQIKYGANVIKFMPSGGVLSLSDPVDAPELSQDEMNAVIGESHAWGRKVAAHAHGDKAAKMAVAAGVDSIEHGSFIEDDTLRAMKAKNVYLVPTISSIAHVEEKIGTFPPVIAEKGRAAAAHLRQTFRHAVQIGVPIALGTDAGVGAHGSNAREFRYMVENGLTPAQALLAGTANAARLLGTFDRVGTLEAGKLADVVAVPGNPIADITVTERPLFVMKDGVVVRRDAVR
modifications: exemplary polypeptide
B3: 63 (protein)
chain: MTTRTRILTAFLSLLAANACAADAAPAAPHTVVLRAARMFDGASGKLVDHPQLTIVGNKIVRIAQGDKAEVPAGAEVVDLGDATLLPGFIDAHVHLSGQSSDNWYGDFFDNMMRFPAEQALYGAYYARITLEAGFTSVRDVGSTDWVALGLRNAIDAGKVPGPRMLVSNYAVGSTGGHADQDPIPPHKLPLAGPLQGVCNGPEECRAAVRYQIKYGANVIKFMPSGGVLSLSDPVDAPQLSQDEMNAVIGESHAWGRKVAAHAHGDKAAKMAVAAGVDSIEHGSFIEDDTLRAMKAKNVYLVPTISAIAHVEEKIGTFPPVIAEKGRAAAAHLRQTFRHAVQIGVPIALGTDAGVGAHGSNAREFRYMVENGLTPAQALLAGTANAARLLGTFDRVGTLEAGKLADVVAVPGNPIADITVTERPLFVMKDGVVVRRDAVR
modifications: exemplary polypeptide
B4: 58 (protein)
chain: MTTRTRILTAFLSLLAANACAADAAPAAPHTVVLRAARMFDGASGKLVDHPQLTIVGNKIVRIAQGDKAEVPAGAEVVDLGDATLLPGFIDAHVHLSGQSSDNWYGDFFDNMMRFPAEQALYGAYYARITLEAGFTSVRDVGSTDWVALGLRNAIDAGKVPGPRMLVSNYAVGSTGGHADQDPIPPHKLPLAGPLQGVCNGPEECRAAVRYQIKYGANVIKFMPSGGVLSLSDPVDAPELSQDEMNAVIGESHAWGRKVAAHAHGDKAAKMAVAAGVDSIEHGSFIEDDTLRAMKAKNVYLVPTISGIAHVEEKIGTFPPVIAEKGRAAAAHLRQTFRHAVQIGVPIALGTDAGVGAHGSNAREFRYMVENGLTPAQALLAGTANAARLLGTFDRVGTLEAGKLADVVAVPGNPIADITVTERPLFVMKDGVVVRRDAVR
modifications: exemplary polypeptide
B5: 60 (protein)
chain: MTTRTRILTAFLSLLAANACAADAAPAAPHTVVLRAARMFDGASGKLVDHPQLTIVGNKIVRIAQGDKAEVPAGAEVVDLGDATLLPGFIDAHVHLSGQSSDNWYGDFFDNMMRFPAEQALYGAYYARITLEAGFTSVRDVGSTDWVALGLRNAIDAGKVPGPRMLVSNYAVGSTGGHADQDPIPPHKLPLAGPLQGVCNGPEECRAAVRYQIKYGANVIKFMPSGGVLSLSDPVDAPELSQDEMNAVIGESHAWGRKVAAHAHGDKAAKMAVAAGVDSIEHGSFIEDDTLRAMKAKNVYLVPTISAIAHTEEKIGTFPPVIAEKGRAAAAHLRQTFRHAVQIGVPIALGTDAGVGAHGSNAREFRYMVENGLTPAQALLAGTANAARLLGTFDRVGTLEAGKLADVVAVPGNPIADITVTERPLFVMKDGVVVRRDAVR
modifications: exemplary polypeptide
B6: 62 (protein)
chain: MTTRTRILTAFLSLLAANACAADAAPAAPHTVVLRAARMFDGASGKLVDHPQLTIVGNKIVRIAQGDKAEVPAGAEVVDLGDATLLPGFIDAHVHLSGQSSDNWYGDFFDNMMRFPAEQALYGAYYARITLEAGFTSVRDVGSTDWVALGLRNAIDAGKVPGPRMLVSNYAVGSTGGHADQDPIPPHKLPLAGPLQGVCNGPEECRAAVRYQIKYGANVIKFMPSGGVLSLSDPPDAPELSQDEMNAVIGESHAWGRKVAAHAHGDKAAKMAVAAGVDSIEHGSFIEDDTLRAMKAKNVYLVPTISAIAHVEEKIGTFPPVIAEKGRAAAAHLRQTFRHAVQIGVPIALGTDAGVGAHGSNAREFRYMVENGLTPAQALLAGTANAARLLGTFDRVGTLEAGKLADVVAVPGNPIADITVTERPLFVMKDGVVVRRDAVR
modifications: exemplary polypeptide
B7: 61 (protein)
chain: MTTRTRILTAFLSLLAANACAADAAPAAPHTVVLRAARMFDGASGKLVDHPQLTIVGNKIVRIAQGDKAEVPAGAEVVDLGDATLLPGFIDAHVHLSGQSSDNWYGDFFDNMMRFPAEQALYGAYYARITLEAGFTSVRDVGSTDWVALGLRNAIDAGKVPGPRMLVSNYAVGSTGGHADQDPIPPHKLPLAGPLQGVCNGPEECRAAVRYQIKYGANVIKFMPSGGVLSLSDPVDAPELSQDEMNAVIGESHAWGRKVAAHAHGDKAAKMAVAAGVDSIEHGSFIEDDTLRAMKAKNVYLVPTISAIAHVEEKIGTFPPVIAEKGRAAAAHLRQTFRHAVQIGVPIALGTDAGTGAHGSNAREFRYMVENGLTPAQALLAGTANAARLLGTFDRVGTLEAGKLADVVAVPGNPIADITVTERPLFVMKDGVVVRRDAVR
modifications: exemplary polypeptide
B8: 56 (protein)
chain: MTTRTRILTAFLSLLAANACAADAAPAAPHTVVLRAARMFDGASGKLVDHPQLTIVGNKIVRIAQGDKAEVPAGAEVVDLGDATLLPGFIDAHVHLSGQSSDNWYGDFFDNMMRFPAEQALYGAYYARITLEAGFTSVRDVGSTDWVALGLRNAIDAGKVPGPRMLVSNYAVGSTGGHADQDPIPPHKLPLAGPLQGVCNGPEECRAAVRYQIKYGANVIKFMPSGGVMSLSDPVDAPELSQDEMNAVIGESHAWGRKVAAHAHGDKAAKMAVAAGVDSIEHGSFIEDDTLRAMKAKNVYLVPTISAIAHVEEKIGTFPPVIAEKGRAAAAHLRQTFRHAVQIGVPIALGTDAGVGAHGSNAREFRYMVENGLTPAQALLAGTANAARLLGTFDRVGTLEAGKLADVVAVPGNPIADITVTERPLFVMKDGVVVRRDAVR
modifications: exemplary polypeptide
B9: 59 (protein)
chain: MTTRTRILTAFLSLLAANACAADAAPAAPHTVVLRAARMFDGASGKLVDHPQLTIVGNKIVRIAQGDKAEVPAGAEVVDLGDATLLPGFIDAHVHLSGQSSDNWYGDFFDNMMRFPAEQALYGAYYARITLEAGFTSVRDVGSTDWVALGLRNAIDAGKVPGPRMLVSNYAVGSTGGHADQDPIPPHKLPLAGPLQGVCNGPEECRAAVRYQIKYGANVIKFMPSGGVLSLSDPVDAPELSQDEMNAVIGESHAWGRKVAAHAHGDKAAKMAVAAGVDSIEHGSFIEDDTLRAMKAKNVYLVPTISAVAHVEEKIGTFPPVIAEKGRAAAAHLRQTFRHAVQIGVPIALGTDAGVGAHGSNAREFRYMVENGLTPAQALLAGTANAARLLGTFDRVGTLEAGKLADVVAVPGNPIADITVTERPLFVMKDGVVVRRDAVR
modifications: exemplary polypeptide

Experiments:
[1] = OTA detoxification activity assay (specific activity, fluorescence reduction ex/em 390/450 nm); format: biochemical; details: SEQ ID NO: 1 = 100%
Summary of the method: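 Recombinant enzyme preparation with 200 ng/mL OTA in 100 mM sodium phosphate, at pH 6.0 and pH 7.5, 37° C. Degradation followed as the fall in fluorescence at ex/em 390/450 nm. Specific activity taken from the initial linear slope; one unit degrades 1 μmol OTA per min at a starting OTA of […].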

[2] = Thermostability assay: residual OTA detoxification activity after 10 min incubation at 45-99° C. (T50); format: physicochemical; details: 0.1 mg/mL protein in 20 mM Tris-HCl pH 7.5, residual OTA detoxification activity relative to 4° C. reference aliquot
Summary of the method: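 T50 marks the temperature range at which half the starting OTA-detoxifying activity is lost, versus an unheated 4 °C reference. Samples were 0.1 mg/mL purified protein in 20 mM Tris-HCl pH 7.5, exposed for 10 min to 45, 55, 65, 75, 80, 85, 90, 95 or 99 °C.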

Molecule | Specific OTA detoxification activities in % compared to the enzyme of SEQ ID NO: 1, pH 6.0 [1] [%] | Specific OTA detoxification activities in % compared to the enzyme of SEQ ID NO: 1, pH 7.5 [1] [%] | T50 (temperature at which 50% of the initial activity was maintained) [2]
B1 | 27 | 54 | 64-66 °C
B2 | 15 | 16 | 68-70 °C
B3 | 43 | 112 | 72-74 °C
B4 | 6 | 8 | 72 °C
B5 | 23 | 61 | 66-68 °C
B6 | 35 | 26 | 63-64 °C
B7 | 15 | 34 | 66-68 °C
B8 | 32 | 87 | 66-68 °C
B9 | 69 | 333 | 68-70 °C
